The source of these data is patent US20170051042A1.

pIC50: −log10 of the molar value.

Experiment [1] has as its target GPIIb/IIIa on mouse platelets (mouse) (UniProt Q9QUM0). Kind of experiment: mouse platelet depletion assay, unbound FVIII activity in supernatant; the filing calls this non-specific binding, not occurring through the peptide.
Experiment [2] deals with GPIIb/IIIa on human platelets (human) (UniProt P08514). Kind of experiment: platelet depletion assay, 2.5 nM, plasma lacking FVIII and vWF (condition C); the filing calls this non-specific binding to platelets, not through GPIIb/IIIa.
Experiment [3] has as its target purified GPIIb-IIIa (Innovative Research), immobilized (UniProt P08514). Kind of experiment: solid phase competition of 3.5 nM biotinylated fibrinogen on coated GPIIb-IIIa, N=4.

GPIIb/IIIa on mouse platelets (mouse), sequence (Q9QUM0 32-1033, chain 1 of 2): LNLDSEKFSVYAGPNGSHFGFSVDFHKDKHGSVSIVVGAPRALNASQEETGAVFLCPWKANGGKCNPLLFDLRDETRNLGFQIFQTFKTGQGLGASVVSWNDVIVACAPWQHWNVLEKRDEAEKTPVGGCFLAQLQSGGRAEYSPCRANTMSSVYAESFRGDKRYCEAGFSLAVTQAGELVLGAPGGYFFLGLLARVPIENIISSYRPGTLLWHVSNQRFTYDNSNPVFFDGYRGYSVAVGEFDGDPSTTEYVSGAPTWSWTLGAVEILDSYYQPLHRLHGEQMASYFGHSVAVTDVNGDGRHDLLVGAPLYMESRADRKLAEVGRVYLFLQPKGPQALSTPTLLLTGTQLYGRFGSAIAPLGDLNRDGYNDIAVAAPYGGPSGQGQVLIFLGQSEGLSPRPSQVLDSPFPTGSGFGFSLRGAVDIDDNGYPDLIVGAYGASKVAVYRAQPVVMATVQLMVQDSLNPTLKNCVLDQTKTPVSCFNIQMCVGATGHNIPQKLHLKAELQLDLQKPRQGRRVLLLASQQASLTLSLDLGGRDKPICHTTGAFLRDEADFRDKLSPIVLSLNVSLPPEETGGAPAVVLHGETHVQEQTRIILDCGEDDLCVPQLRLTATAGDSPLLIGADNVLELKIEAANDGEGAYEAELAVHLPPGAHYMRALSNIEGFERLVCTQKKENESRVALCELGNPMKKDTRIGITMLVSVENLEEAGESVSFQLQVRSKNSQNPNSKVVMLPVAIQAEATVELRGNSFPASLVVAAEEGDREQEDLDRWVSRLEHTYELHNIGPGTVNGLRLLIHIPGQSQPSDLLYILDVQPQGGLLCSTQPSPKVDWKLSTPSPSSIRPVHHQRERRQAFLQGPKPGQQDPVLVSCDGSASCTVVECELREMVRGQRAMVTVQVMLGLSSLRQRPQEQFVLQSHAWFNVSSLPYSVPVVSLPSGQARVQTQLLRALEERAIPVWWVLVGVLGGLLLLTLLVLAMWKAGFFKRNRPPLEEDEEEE
GPIIb/IIIa on mouse platelets (mouse), sequence (O54890 26-787, chain 2 of 2, further chain): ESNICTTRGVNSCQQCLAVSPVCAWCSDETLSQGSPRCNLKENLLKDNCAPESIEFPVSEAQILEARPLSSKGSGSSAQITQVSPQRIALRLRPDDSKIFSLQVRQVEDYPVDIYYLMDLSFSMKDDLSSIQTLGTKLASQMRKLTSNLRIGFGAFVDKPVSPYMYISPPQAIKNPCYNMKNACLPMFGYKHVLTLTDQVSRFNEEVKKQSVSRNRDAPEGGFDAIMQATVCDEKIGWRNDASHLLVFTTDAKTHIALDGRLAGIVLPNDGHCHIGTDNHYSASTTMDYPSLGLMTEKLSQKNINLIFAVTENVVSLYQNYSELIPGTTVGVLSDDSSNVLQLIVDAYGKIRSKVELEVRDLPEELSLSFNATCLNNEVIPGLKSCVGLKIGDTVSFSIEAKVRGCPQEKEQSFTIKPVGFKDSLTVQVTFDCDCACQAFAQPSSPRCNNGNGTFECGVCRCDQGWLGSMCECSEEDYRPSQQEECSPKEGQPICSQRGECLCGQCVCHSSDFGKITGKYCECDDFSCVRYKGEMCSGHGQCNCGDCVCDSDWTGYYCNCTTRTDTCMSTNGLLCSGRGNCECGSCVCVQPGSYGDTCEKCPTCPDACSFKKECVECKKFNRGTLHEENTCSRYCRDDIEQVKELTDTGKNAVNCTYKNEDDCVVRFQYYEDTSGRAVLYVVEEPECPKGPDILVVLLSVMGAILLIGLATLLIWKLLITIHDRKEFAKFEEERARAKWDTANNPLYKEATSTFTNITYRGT

“unmodified recombinant FVIII (from UniProt P00451 20-2351)” gave a percent of activity bound in experiment [1] of 59%. In experiment [2], this substance displayed a percent of FVIII activity bound of 35%. With integrilin (peptide), the negative logarithm of the IC50 (pIC50) (as a rule, the negative decadic logarithm of the IC50, by convention in mol/L) in experiment [3] is 8.89.
